Residue numbers refer to the chain shown, from its start. Numbers in names are those of the source.
T1: recombinant human CEACAM-1 (R&D Systems cat. no. 2244-CM-050) (human, UniProt P13688 35-428)
T1 construct: Coated on the ELISA plate at 0.5 ug/ml
T1 sequence (looked up): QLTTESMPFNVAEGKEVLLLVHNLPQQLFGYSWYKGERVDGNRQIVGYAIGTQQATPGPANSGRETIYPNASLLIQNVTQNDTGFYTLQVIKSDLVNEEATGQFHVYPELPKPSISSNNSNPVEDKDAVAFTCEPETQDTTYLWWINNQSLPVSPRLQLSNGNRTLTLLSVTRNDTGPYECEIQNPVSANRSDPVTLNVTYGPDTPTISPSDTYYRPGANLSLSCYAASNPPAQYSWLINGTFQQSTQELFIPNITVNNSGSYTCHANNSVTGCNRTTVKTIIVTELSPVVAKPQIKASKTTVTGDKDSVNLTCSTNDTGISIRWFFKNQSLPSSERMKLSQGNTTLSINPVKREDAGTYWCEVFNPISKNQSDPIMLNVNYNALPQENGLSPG

B1: humanized anti-CEACAM-1 variant VH3/VK2, IgG1 (antibody, V domains shown)
VH: QVQLVQSGAEVKKPGASVKVSCKASGYAFTNNLIEWVRQAPGQGLEWIGVINPGSGDTNYNEKFKGRATLTADKSINTAYMELSRLRSDDTAVYYCARGDYYGGFAVDYWGQGTTVTVSS
VL: DIQMTQSPSSLSASVGDRVTITCRTSQDIGNYLNWYQQKPGKAVKLLIYYTSRLHSGVPSRFSGSGSGTDYTLTISSLQPEDIATYFCQQGKSLPRTFGGGTKVEIK
notes: Tested as human IgG1 / kappa antibody; only the variable regions are tied to this variant
B2: humanized anti-CEACAM-1 variant VH3/VK2, IgG4 (S241P) (antibody, V domains shown)
VH: B1 VH
VL: B1 VL
notes: Tested as human IgG4 (S241P) / kappa antibody; only the variable regions are tied to this variant
B3: humanized anti-CEACAM-1 variant VH2/VK3, IgG1 (antibody, V domains shown)
VH: B1 VH with R38K, Y95F
VL: B1 VL with L73F
notes: as for B1
B4: humanized anti-CEACAM-1 variant VH2/VK2, IgG4 (S241P) (antibody, V domains shown)
VH: B1 VH with R38K, Y95F
VL: B1 VL
notes: as for B2
B5: humanized anti-CEACAM-1 variant VH1/VK3, IgG4 (S241P) (antibody, V domains shown)
VH: B1 VH with V11L, R38K, R85S, R87T, T91S, Y95F, T115S
VL: B1 VL with L73F
notes: as for B2
B6: humanized anti-CEACAM-1 variant VH2/VK1, IgG1 (antibody, V domains shown)
VH: B1 VH with R38K, Y95F
VL: B1 VL with P80Q
notes: as for B1
B7: humanized anti-CEACAM-1 variant VH1/VK2, IgG1 (antibody, V domains shown)
VH: B1 VH with V11L, R38K, R85S, R87T, T91S, Y95F, T115S
VL: B1 VL
notes: as for B1
B8: humanized anti-CEACAM-1 variant VH1/VK1, IgG4 (S241P) (antibody, V domains shown)
VH: B1 VH with V11L, R38K, R85S, R87T, T91S, Y95F, T115S
VL: B1 VL with P80Q
notes: as for B2
B9: humanized anti-CEACAM-1 variant VH5/VK3, IgG1 (antibody, V domains shown)
VH: B1 VH with A68V, L70M, N77S
VL: B1 VL with L73F
notes: as for B1
B10: humanized anti-CEACAM-1 variant VH5/VK1, IgG4 (S241P) (antibody, V domains shown)
VH: B1 VH with A68V, L70M, N77S
VL: B1 VL with P80Q
notes: as for B2
B11: humanized anti-CEACAM-1 variant VH1/VK1, IgG1 (antibody, V domains shown)
VH: B1 VH with V11L, R38K, R85S, R87T, T91S, Y95F, T115S
VL: B1 VL with P80Q
notes: as for B1
B12: humanized anti-CEACAM-1 variant VH3/VK1, IgG1 (antibody, V domains shown)
VH: B1 VH
VL: B1 VL with P80Q
notes: as for B1
B13: humanized anti-CEACAM-1 variant VH3/VK1, IgG4 (S241P) (antibody, V domains shown)
VH: B1 VH
VL: B1 VL with P80Q
notes: as for B2
B14: humanized anti-CEACAM-1 variant VH4/VK3, IgG4 (S241P) (antibody, V domains shown)
VH: B1 VH with N77S
VL: B1 VL with L73F
notes: as for B2
B15: humanized anti-CEACAM-1 variant VH4/VK3, IgG1 (antibody, V domains shown)
VH: B1 VH with N77S
VL: B1 VL with L73F
notes: as for B1
B16: humanized anti-CEACAM-1 variant VH5/VK3, IgG4 (S241P) (antibody, V domains shown)
VH: B1 VH with A68V, L70M, N77S
VL: B1 VL with L73F
notes: as for B2
B17: humanized anti-CEACAM-1 variant VH4/VK2, IgG4 (S241P) (antibody, V domains shown)
VH: B1 VH with N77S
VL: B1 VL
notes: as for B2
B18: humanized anti-CEACAM-1 variant VH5/VK2, IgG1 (antibody, V domains shown)
VH: B1 VH with A68V, L70M, N77S
VL: B1 VL
notes: as for B1
B19: humanized anti-CEACAM-1 variant VH2/VK1, IgG4 (S241P) (antibody, V domains shown)
VH: B1 VH with R38K, Y95F
VL: B1 VL with P80Q
notes: as for B2
B20: humanized anti-CEACAM-1 variant VH1/VK3, IgG1 (antibody, V domains shown)
VH: B1 VH with V11L, R38K, R85S, R87T, T91S, Y95F, T115S
VL: B1 VL with L73F
notes: as for B1
B21: humanized anti-CEACAM-1 variant VH3/VK3, IgG1 (antibody, V domains shown)
VH: B1 VH
VL: B1 VL with L73F
notes: as for B1
B22: humanized anti-CEACAM-1 variant VH3/VK3, IgG4 (S241P) (antibody, V domains shown)
VH: B1 VH
VL: B1 VL with L73F
notes: as for B2
B23: humanized anti-CEACAM-1 variant VH5/VK2, IgG4 (S241P) (antibody, V domains shown)
VH: B1 VH with A68V, L70M, N77S
VL: B1 VL
notes: as for B2
B24: humanized anti-CEACAM-1 variant VH4/VK1, IgG4 (S241P) (antibody, V domains shown)
VH: B1 VH with N77S
VL: B1 VL with P80Q
notes: as for B2
B25: humanized anti-CEACAM-1 variant VH2/VK3, IgG4 (S241P) (antibody, V domains shown)
VH: B1 VH with R38K, Y95F
VL: B1 VL with L73F
notes: as for B2
B26: humanized anti-CEACAM-1 variant VH4/VK2, IgG1 (antibody, V domains shown)
VH: B1 VH with N77S
VL: B1 VL
notes: as for B1
B27: humanized anti-CEACAM-1 variant VH5/VK1, IgG1 (antibody, V domains shown)
VH: B1 VH with A68V, L70M, N77S
VL: B1 VL with P80Q
notes: as for B1
B28: humanized anti-CEACAM-1 variant VH4/VK1, IgG1 (antibody, V domains shown)
VH: B1 VH with N77S
VL: B1 VL with P80Q
notes: as for B1
B29: humanized anti-CEACAM-1 variant VH2/VK2, IgG1 (antibody, V domains shown)
VH: B1 VH with R38K, Y95F
VL: B1 VL
notes: as for B1
B30: humanized anti-CEACAM-1 variant VH1/VK2, IgG4 (S241P) (antibody, V domains shown)
VH: B1 VH with V11L, R38K, R85S, R87T, T91S, Y95F, T115S
VL: B1 VL
notes: as for B2

Molecular target: T1, recombinant human CEACAM-1 (R&D Systems …)
Experiment: competition ELISA on coated recombinant human CEACAM-1; competitor biotinylated chimeric CM-10 IgG1
From the text: The binding of the biotinylated antibody was detected with streptavidin-HRP (Sigma cat. no. S5512) and TMB substrate (Invitrogen cat. no. 00-2023). The reaction was stopped with 3M HC1, absorbance read at 450 nm on a Dynex Technologies MRX TC II plate reader and the binding curves plotted.

Binder	IC50	IC50 normalized to CM-10
B1	0.85 µg/mL	1.36 ratio to IC50 of chimeric CM-10
B2	0.77 µg/mL	1.26 ratio to IC50 of chimeric CM-10
B3	0.76 µg/mL	1.21 ratio to IC50 of chimeric CM-10
B4	0.76 µg/mL	1.26 ratio to IC50 of chimeric CM-10
B5	0.54 µg/mL	1.05 ratio to IC50 of chimeric CM-10
B6	0.68 µg/mL	1.29 ratio to IC50 of chimeric CM-10
B7	0.7 µg/mL	1.32 ratio to IC50 of chimeric CM-10
B8	0.78 µg/mL	1.52 ratio to IC50 of chimeric CM-10
B9	0.74 µg/mL	1.12 ratio to IC50 of chimeric CM-10
B10	0.74 µg/mL	1.23 ratio to IC50 of chimeric CM-10
B11	0.78 µg/mL	1.46 ratio to IC50 of chimeric CM-10
B12	0.69 µg/mL	1.1 ratio to IC50 of chimeric CM-10
B13	0.71 µg/mL	1.16 ratio to IC50 of chimeric CM-10
B14	0.63 µg/mL	1.06 ratio to IC50 of chimeric CM-10
B15	0.99 µg/mL	1.56 ratio to IC50 of chimeric CM-10
B16	0.7 µg/mL	1.17 ratio to IC50 of chimeric CM-10
B17	0.69 µg/mL	1.17 ratio to IC50 of chimeric CM-10
B18	0.72 µg/mL	1.09 ratio to IC50 of chimeric CM-10
B19	0.43 µg/mL	0.84 ratio to IC50 of chimeric CM-10
B20	0.77 µg/mL	1.44 ratio to IC50 of chimeric CM-10
B21	0.86 µg/mL	1.37 ratio to IC50 of chimeric CM-10
B22	0.73 µg/mL	1.23 ratio to IC50 of chimeric CM-10
B23	0.7 µg/mL	1.16 ratio to IC50 of chimeric CM-10
B24	0.69 µg/mL	1.15 ratio to IC50 of chimeric CM-10
B25	0.71 µg/mL	1.16 ratio to IC50 of chimeric CM-10
B26	0.78 µg/mL	1.24 ratio to IC50 of chimeric CM-10
B27	0.77 µg/mL	1.17 ratio to IC50 of chimeric CM-10
B28	0.73 µg/mL	1.15 ratio to IC50 of chimeric CM-10
B29	0.78 µg/mL	1.24 ratio to IC50 of chimeric CM-10
B30	0.7 µg/mL	1.36 ratio to IC50 of chimeric CM-10

Reference: US20240092934A1 (FAMEWAVE, published 2024)
